Tests used:
Experiment in all cases: cell_activity
[1] = test system: eZFN4 zinc finger nuclease (FokI); conditions: soybean F1, AtUbi3 promoter; chimeric 4.43%; with CsVMV promoter 0.00% complete, 1.58% chimeric
[2] = test system: eZFN4-HF zinc finger nuclease (high fidelity FokI); conditions: soybean F1, AtUbi10 promoter; chimeric excision 10.68%
[3] = test system: eZFN14 zinc finger nuclease (FokI); conditions: soybean F1, CsVMV promoter; complete excision 0.00%
[4] = test system: eZFN2 zinc finger nuclease (FokI); conditions: maize; two identical sites flanking aad-1 cassette; 23 of 621 plants

“GCCTTTTGCAGTTTATCTCTATGCCCGGGACAAGTG (double strand) [eZFN4 binding site]” was tested, and the activity (% complete excision) [1] was 0.13 and the activity (% complete excision) [2] was 1.23.
“TGGTCATCCTCATCCTGTCTATGCCCGGGACAAGTG (double strand) [eZFN14 binding site]” showed an activity (% chimeric excision) [3] of 2.82.
“AAGACTCCCGCCCATCTCTCTATGCCCGGGACAAGTG (double strand) [eZFN2 binding site]” showed an activity (% F1 plants with aad-1 excised) [4] of 3.7.

From patent publication US20180163218
